Measured values as given in article PMC3699901 (Journal of molecular biology, 2013).
One block for each binder: values may come before it. Ends that are not written are not given here. * marks the point of attachment. 5FAM = O=C1OC2(c3ccc(O)cc3Oc3cc(O)ccc32)c2ccc(C(=O)*)cc21

B2: fluorescein labeled SRC-1 peptide (5-FAM-[residues removed]), residues 676-700 (peptide)
peptide: 5FAM-CPSSHSSLTERHKILHRLLQEGSPS

Columns and labels:
[1] = molecular target: B2; assay: fluorescence polarisation
[2] = molecular target: T1, wild-type RXRα LBD without the fused coactivator peptide (human, UniProt P19793 227-462); assay: fluorescence polarisation
T1 sequence (looked up): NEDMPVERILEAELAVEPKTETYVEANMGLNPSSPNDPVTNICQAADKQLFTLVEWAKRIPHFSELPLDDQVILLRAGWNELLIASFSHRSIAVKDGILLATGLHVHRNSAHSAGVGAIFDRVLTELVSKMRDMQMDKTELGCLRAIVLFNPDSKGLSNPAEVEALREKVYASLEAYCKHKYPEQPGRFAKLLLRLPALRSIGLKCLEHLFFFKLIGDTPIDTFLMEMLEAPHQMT

[3] = molecular target: T2, wild-type PXR LBD without the fused coactivator peptide (human, UniProt O75469 130-434); assay: fluorescence polarisation
T2 sequence (looked up): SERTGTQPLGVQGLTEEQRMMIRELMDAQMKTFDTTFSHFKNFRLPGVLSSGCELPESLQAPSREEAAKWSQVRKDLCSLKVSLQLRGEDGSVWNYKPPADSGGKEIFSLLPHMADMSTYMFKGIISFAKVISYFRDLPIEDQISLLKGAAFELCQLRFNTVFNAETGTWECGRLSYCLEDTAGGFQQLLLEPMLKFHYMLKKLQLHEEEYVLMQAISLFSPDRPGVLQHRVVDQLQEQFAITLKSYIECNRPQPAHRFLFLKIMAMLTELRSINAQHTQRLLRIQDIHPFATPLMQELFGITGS

[4] = molecular target: T3, RXRα LBD (residues 227-462), the LBD part of the crystallised fusion chain (human, UniProt P19793 227-462); assay: crystal structure
T3 sequence (looked up): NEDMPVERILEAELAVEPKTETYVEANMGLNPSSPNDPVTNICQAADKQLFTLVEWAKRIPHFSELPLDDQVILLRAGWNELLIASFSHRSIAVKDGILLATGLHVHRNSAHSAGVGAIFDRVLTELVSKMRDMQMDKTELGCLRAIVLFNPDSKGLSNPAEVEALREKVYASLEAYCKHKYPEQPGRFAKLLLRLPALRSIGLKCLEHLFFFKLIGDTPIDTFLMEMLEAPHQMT

[5] = molecular target: T4, PXR LBD (residues 130-434), the LBD part of the crystallised fusion chain (human, UniProt O75469 130-434); assay: crystal structure
T4 sequence (looked up): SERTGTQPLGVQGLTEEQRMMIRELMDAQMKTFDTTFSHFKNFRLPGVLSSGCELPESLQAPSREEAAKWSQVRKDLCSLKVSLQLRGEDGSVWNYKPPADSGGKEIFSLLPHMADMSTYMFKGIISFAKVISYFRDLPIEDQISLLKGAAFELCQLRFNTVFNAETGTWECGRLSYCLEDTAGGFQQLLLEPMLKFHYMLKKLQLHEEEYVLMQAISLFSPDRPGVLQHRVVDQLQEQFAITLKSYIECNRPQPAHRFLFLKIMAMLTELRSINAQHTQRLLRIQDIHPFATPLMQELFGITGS

- Kd [1]: 588 ± 29.7 nM
B1: PXR/RXRα LBD heterotetramer complex of unfused PXR LBD with SRC-1-fused RXRα LBD (complex, human)
chain 1: SERTGTQPLGVQGLTEEQRMMIRELMDAQMKTFDTTFSHFKNFRLPGVLSSGCELPESLQAPSREEAAKWSQVRKDLCSLKVSLQLRGEDGSVWNYKPPADSGGKEIFSLLPHMADMSTYMFKGIISFAKVISYFRDLPIEDQISLLKGAAFELCQLRFNTVFNAETGTWECGRLSYCLEDTAGGFQQLLLEPMLKFHYMLKKLQLHEEEYVLMQAISLFSPDRPGVLQHRVVDQLQEQFAITLKSYIECNRPQPAHRFLFLKIMAMLTELRSINAQHTQRLLRIQDIHPFATPLMQELFGITGS
chain 2: NEDMPVERILEAELAVEPKTETYVEANMGLNPSSPNDPVTNICQAADKQLFTLVEWAKRIPHFSELPLDDQVILLRAGWNELLIASFSHRSIAVKDGILLATGLHVHRNSAHSAGVGAIFDRVLTELVSKMRDMQMDKTELGCLRAIVLFNPDSKGLSNPAEVEALREKVYASLEAYCKHKYPEQPGRFAKLLLRLPALRSIGLKCLEHLFFFKLIGDTPIDTFLMEMLEAPHQMTGGSGGSSHSSLTERHKILHRLLQEGSPS

Binder: B2
- Kd [2]: 1560 ± 198 nM
- Kd [3]: 1180 ± 92.2 nM

- Kd [1]: 778 ± 88.8 nM
B3: PXR/RXRα LBD heterotetramer complex of SRC-1 fused PXR LBD with unfused RXRα LBD (complex, human)
chain 1: NEDMPVERILEAELAVEPKTETYVEANMGLNPSSPNDPVTNICQAADKQLFTLVEWAKRIPHFSELPLDDQVILLRAGWNELLIASFSHRSIAVKDGILLATGLHVHRNSAHSAGVGAIFDRVLTELVSKMRDMQMDKTELGCLRAIVLFNPDSKGLSNPAEVEALREKVYASLEAYCKHKYPEQPGRFAKLLLRLPALRSIGLKCLEHLFFFKLIGDTPIDTFLMEMLEAPHQMT
chain 2: SERTGTQPLGVQGLTEEQRMMIRELMDAQMKTFDTTFSHFKNFRLPGVLSSGCELPESLQAPSREEAAKWSQVRKDLCSLKVSLQLRGEDGSVWNYKPPADSGGKEIFSLLPHMADMSTYMFKGIISFAKVISYFRDLPIEDQISLLKGAAFELCQLRFNTVFNAETGTWECGRLSYCLEDTAGGFQQLLLEPMLKFHYMLKKLQLHEEEYVLMQAISLFSPDRPGVLQHRVVDQLQEQFAITLKSYIECNRPQPAHRFLFLKIMAMLTELRSINAQHTQRLLRIQDIHPFATPLMQELFGITGSGGSGGSSHSSLTERHKILHRLLQEGSPS

- binding result [4]: binds
- binding result [5]: binds
B4: human SRC-1 coactivator fragment (residues 678-700), as it stands fused to the C-termini of the crystallised LBDs (peptide)
peptide: SSHSSLTERHKILHRLLQEGSPS
